Reference: patent US20260184748A1 (University of Pennsylvania, published 2026)
Where no end group is shown, it is not given here.

Key:
Experiment in all cases: cell-based or functional assay
HTR1F = biological target: T1, HTR1F (UniProt P30939 1-366)
T1 sequence (looked up): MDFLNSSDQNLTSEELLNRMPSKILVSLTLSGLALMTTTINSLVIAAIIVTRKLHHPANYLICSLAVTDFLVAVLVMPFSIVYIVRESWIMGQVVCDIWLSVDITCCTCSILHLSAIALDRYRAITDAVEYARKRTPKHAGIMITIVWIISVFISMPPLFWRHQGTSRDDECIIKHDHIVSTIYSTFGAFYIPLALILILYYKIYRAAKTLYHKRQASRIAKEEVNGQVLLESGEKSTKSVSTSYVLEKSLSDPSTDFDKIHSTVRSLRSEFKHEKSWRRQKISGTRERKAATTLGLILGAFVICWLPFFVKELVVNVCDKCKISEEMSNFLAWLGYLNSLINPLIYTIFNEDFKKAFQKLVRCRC

MC5R = MC5R (UniProt P33032 1-325)
Chain of MC5R (P33032 whole entry): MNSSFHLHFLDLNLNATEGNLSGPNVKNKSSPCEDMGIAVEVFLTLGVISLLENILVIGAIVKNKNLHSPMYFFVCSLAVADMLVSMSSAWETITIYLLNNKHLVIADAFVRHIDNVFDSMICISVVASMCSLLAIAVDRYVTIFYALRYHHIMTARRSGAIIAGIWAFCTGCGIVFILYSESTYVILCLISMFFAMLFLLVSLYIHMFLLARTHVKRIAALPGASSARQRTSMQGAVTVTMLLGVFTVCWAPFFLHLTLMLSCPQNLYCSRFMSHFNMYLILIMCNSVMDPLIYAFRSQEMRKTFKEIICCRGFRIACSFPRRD

AVPR1B = biological target: T2, AVPR1B (UniProt P47901 1-424)
T2 sequence (looked up): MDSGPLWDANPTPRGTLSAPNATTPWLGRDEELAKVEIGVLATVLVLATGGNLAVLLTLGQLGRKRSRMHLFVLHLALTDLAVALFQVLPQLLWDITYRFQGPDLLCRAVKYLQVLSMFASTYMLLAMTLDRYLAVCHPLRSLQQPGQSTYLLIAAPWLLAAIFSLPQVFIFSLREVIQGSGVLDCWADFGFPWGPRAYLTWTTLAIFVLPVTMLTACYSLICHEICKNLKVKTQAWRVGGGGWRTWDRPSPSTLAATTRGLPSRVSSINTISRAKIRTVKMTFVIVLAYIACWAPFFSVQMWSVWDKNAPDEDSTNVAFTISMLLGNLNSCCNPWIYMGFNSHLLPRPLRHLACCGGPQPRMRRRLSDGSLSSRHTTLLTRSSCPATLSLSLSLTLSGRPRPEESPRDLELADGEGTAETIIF

C5aR1 = biological target: T3, C5aR1 (UniProt P21730 1-350)
T3 sequence (looked up): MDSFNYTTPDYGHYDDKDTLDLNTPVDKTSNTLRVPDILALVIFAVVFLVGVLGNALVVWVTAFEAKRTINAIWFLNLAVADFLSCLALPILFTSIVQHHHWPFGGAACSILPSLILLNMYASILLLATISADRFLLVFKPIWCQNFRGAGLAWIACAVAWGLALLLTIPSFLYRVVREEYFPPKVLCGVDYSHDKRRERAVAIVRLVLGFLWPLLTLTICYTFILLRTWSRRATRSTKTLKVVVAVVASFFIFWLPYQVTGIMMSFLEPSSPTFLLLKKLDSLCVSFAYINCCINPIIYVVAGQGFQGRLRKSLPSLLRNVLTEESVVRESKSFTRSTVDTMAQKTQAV

C5L2 = C5L2 (UniProt Q9P296 1-337)
Chain of C5L2 (Q9P296 whole entry): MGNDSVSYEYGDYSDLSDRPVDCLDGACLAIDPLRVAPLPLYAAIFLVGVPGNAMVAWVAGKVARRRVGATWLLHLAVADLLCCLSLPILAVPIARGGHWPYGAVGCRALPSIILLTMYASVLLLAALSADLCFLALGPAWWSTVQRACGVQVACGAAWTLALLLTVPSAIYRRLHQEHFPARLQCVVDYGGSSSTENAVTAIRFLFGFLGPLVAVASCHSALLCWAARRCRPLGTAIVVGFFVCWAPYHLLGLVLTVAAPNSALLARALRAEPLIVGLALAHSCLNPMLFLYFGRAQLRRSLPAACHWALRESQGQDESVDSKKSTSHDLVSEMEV

CCR10 = biological target: T4, CCR10 (UniProt P46092 1-362)
T4 sequence (looked up): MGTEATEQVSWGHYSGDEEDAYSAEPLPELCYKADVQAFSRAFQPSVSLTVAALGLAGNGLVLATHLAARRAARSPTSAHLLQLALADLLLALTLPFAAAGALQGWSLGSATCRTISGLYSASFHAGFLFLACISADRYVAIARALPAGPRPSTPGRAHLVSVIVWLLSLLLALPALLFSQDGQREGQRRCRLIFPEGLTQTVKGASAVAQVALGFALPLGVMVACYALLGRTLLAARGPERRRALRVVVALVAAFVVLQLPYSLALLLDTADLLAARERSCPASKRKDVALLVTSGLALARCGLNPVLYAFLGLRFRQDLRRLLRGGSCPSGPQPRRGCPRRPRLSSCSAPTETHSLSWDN

CRHR2 = biological target: T5, CRHR2 (UniProt Q13324 1-411, limits assumed)
T5 sequence (looked up): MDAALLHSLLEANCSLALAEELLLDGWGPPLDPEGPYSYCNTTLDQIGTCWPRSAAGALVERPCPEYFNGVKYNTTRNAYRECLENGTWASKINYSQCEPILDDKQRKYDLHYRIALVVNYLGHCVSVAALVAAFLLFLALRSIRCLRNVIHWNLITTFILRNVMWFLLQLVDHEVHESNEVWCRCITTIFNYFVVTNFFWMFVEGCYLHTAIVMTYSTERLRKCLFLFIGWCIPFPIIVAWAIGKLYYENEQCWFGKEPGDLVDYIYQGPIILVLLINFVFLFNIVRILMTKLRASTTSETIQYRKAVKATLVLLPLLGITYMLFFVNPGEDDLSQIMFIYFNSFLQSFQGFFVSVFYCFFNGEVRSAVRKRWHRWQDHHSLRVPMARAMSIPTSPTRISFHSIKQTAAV

FSHR = biological target: T6, FSHR (UniProt P23945 18-695)
T6 sequence (looked up): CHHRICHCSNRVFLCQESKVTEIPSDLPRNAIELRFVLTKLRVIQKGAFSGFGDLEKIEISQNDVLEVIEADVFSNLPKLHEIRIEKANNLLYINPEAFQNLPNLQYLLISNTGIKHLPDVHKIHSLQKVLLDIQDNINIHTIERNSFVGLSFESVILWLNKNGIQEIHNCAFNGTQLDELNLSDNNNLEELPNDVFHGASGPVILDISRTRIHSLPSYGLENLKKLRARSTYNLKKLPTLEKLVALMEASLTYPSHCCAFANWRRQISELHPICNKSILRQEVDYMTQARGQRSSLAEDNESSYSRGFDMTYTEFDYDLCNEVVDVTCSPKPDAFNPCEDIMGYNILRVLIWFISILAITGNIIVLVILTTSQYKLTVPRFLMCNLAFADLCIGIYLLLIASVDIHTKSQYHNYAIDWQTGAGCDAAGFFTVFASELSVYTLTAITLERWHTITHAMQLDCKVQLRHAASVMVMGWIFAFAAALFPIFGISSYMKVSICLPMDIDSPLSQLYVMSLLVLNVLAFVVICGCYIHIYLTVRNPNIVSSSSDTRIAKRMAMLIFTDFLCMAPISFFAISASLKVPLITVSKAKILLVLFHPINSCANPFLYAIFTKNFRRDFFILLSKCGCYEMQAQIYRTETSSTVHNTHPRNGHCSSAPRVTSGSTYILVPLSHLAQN

Binder: QATVGDVNTDRPGLLDLK (also: synthesised on Rink amide resin, C-terminal amide not given here outright) [octadecaneuropeptide (ODN)]
- % Activity, arrestin, antagonist mode, 2.5 uM (HTR1F): -23.3%
- % Activity, arrestin, antagonist mode, 2.5 uM (MC5R): 5.9%
- % Activity, arrestin, antagonist mode, 2.5 uM (AVPR1B): -25.7%
- % Activity, arrestin, antagonist mode, 2.5 uM (C5aR1): -14.2%
- % Activity, arrestin, antagonist mode, 2.5 uM (C5L2): 3.5%
- % Activity, arrestin, antagonist mode, 2.5 uM (CCR10): -16.6%
- % Activity, arrestin, antagonist mode, 2.5 uM (CRHR2): -8.6%
- % Activity, arrestin, antagonist mode, 2.5 uM (FSHR): -16.9%
